Test results as given in patent US20260078185A1 (DYNAMICURE BIOTECHNOLOGY, published 2026).
Where a chain is given by its changes, count along the chain named. Values belong to the binder of their own block, whether it stands above or below them.

What was measured:
[1] = target: T1, mouse VISTA recombinant protein (Sino Biological Inc., Cat. #51550-M08H), biotinylated (mouse, UniProt Q9D659 33-191, biotinylated using EZ-LINK NHS-PEG4 biotin); assay: BLI (Octet QKe), biotinylated VISTA on streptavidin sensors, antibody at 5 µg/ml
T1 construct: Bought protein; also called mouse VISTA protein
T1 sequence (looked up): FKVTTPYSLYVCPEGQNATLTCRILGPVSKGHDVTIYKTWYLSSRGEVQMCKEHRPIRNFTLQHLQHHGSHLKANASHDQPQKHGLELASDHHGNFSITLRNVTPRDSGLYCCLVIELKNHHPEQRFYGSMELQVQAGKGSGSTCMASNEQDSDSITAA
Protocol: (§1) Method: The binding affinity of anti-VISTA antibodies was determined with bio-layer interferometry using Octet QKe (ForteBio). Human VISTA recombinant protein (Sino Biological Inc., Cat. #13482-H08H) mouse VISTA (Sino Biological Inc., Cat. #51550-M08H) were biotinylated using EZ-LINK NHS-PEG4 biotin (Thermo Fisher Scientific). Streptavidin biosensors (ForteBio) were used to load biotinylated VISTA protein (300 seconds at 5 μg/ml). The baseline measurement was stabilized for 60 seconds in 1× kinetics buffer (ForteBio) before anti-VISTA antibodies at 5 μg/ml were allowed to associate for 300 seconds with captured protein. Then the sensors were dissociated in 1× kinetics buffer for 600 seconds. Data analysis was performed on ForteBio Data Analysis HT 11.1 software.

[2] = target: T2, mouse VISTA expressed on Jurkat cells (mouse, UniProt Q9D659 33-308); assay: flow cytometry on Jurkat cells expressing mouse VISTA (FIG. 3E)
T2 construct: whole, on cells; also called Jurkat-mouse VISTA; mouse VISTA expressing cells
T2 sequence (looked up): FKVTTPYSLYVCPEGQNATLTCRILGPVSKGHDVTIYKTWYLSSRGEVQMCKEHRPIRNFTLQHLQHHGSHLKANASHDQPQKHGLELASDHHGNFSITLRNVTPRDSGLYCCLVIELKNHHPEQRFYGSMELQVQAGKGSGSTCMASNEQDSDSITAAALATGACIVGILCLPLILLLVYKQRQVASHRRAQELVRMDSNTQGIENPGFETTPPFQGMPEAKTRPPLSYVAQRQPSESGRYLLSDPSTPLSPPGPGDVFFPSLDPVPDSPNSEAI

[3] = target: T3, Human VISTA recombinant protein (Sino Biological Inc., Cat. #13482-H08H), biotinylated (human, UniProt Q9H7M9 33-194, biotinylated using EZ-LINK NHS-PEG4 biotin); assay: BLI (Octet QKe), biotinylated VISTA on streptavidin sensors, antibody at 5 µg/ml
T3 construct: Bought protein
T3 sequence: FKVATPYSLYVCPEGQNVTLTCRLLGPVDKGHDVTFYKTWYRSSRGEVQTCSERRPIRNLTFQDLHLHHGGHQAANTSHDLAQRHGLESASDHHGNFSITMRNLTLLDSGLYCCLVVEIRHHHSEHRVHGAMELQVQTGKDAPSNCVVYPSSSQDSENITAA
Protocol: as §1

[4] = target: T2, mouse VISTA expressed on Jurkat cells; assay: flow cytometry on Jurkat cells expressing mouse VISTA (FIG. 3A-D); the parental antibody is the binding comparator
[5] = target: T1, mouse VISTA recombinant protein (Sino …); assay: BLI (Octet QKe), biotinylated VISTA on streptavidin sensors; the parental antibody is the affinity comparator
Protocol: as §1

B1: 9F9 humanized anti-VISTA antibody VH14/VL15 (antibody, V domains shown)
VH: QVQLVQSGAEVMKPGASVKISCKASGYTFTGYWMQWVRQRPGQGLEWIGAIYPGDGDTRYSQKFKGKATMTADTSISTAYMELSRLRSDDTAVYYCARRDYGAWFAYWGAGTTVTVSS
VL: DIVMTQSPSSLSASVGERVTITCKASQDINSYLSWFQQKPGKAPKTLIYRANRLVDGVPSRFSGSGSGTDFTFTISSVQPEDLAIYYCLQYDEFPYTFGGGTKLEIK
notes: also called 9E9 anti-VISTA VH14/VL15
- binding result [1]: binds

B2: 9F9 VH15/VL15 hIgG1-LALA (antibody, V domains shown)
VH: B1 VH with I20L, R38K, T91S
VL: B1 VL
notes: also called 9E9 VH15/VL15 using the humanized hIgG1-LALA constant region
- binding result [2]: binds

B3: 9F9 VH15/VL15 hIgG2 (antibody, V domains shown)
VH: B1 VH with I20L, R38K, T91S
VL: B1 VL
notes: also called 9E9 VH15/VL15 using the IgG2 constant region
- binding result [2]: binds

B6: 9F9 humanized anti-VISTA antibody VH7/VL7 (antibody, V domains shown)
VH: QVQFVQSGAEVKKPGASVKVSCKASGYTFTGYWMQWVKQAPGQRLEWIGAIYPGDGDTRYSQKFKGKVTLTADTSASTAYMELSSLRSEDTAVYYCARRDYGAWFAYWGQGTLVTVSS
VL: DIKVTQSPSSLSASVGDRVTITCKASQDINSYLSWYQQKPGKAPKTLIYRANRLVDGVPSRFSGSGSGQEYTLTISSLQPEDFATYYCLQYDEFPYTFGQGTKVEIK
notes: also called 9E9 anti-VISTA VH7/VL7
- binding result [1]: binds

Now from value to binder:

- binding result [1]: binds
B4: 9F9 humanized anti-VISTA antibody VH15/VL15 (antibody, V domains shown)
VH: B1 VH with I20L, R38K, T91S
VL: B1 VL
notes: also called 9E9 anti-VISTA VH15/VL15

- binding result [3]: binds
- binding result [4]: binds
- binding result [5]: binds
B5: 9F9 parental anti-VISTA antibody (VH0/VL0) (antibody, V domains shown)
VH: QVQFQQSGAELARPGASVKLSCKASGYTFTGYWMQWVKQRPGQGLEWIGAIYPGDGDTRYSQKFKGKVTLTADKSSSTAYMQLSSLASEDSAVYYCARRDYGAWFAYWGQGTLVTVSA
VL: DIKVTQSPSSMYASLGERVTITCKASQDINSYLSWFQQKPGKSPKTLIYRANRLVDGVPSRFSGSGSGQDYSLTISSLDYEDMGIYYCLQYDEFPYTFGGGTKLEIK
notes: also called 9E9 parental antibody; parental 9F9 (VH0/VL0)

- binding result [1]: binds
B7: 9F9 humanized anti-VISTA antibody VH9/VL9 (antibody, V domains shown)
VH: B6 VH with A16S, T30S, R44G, T74E, A76T
VL: B6 VL with E70D, L73F, F83I
notes: also called 9E9 anti-VISTA VH9/VL9
